How the values were obtained:
HeLa Kyoto [1] = assay: thermal stability score vs G1/S (z-score of summed log2 fold changes over temperatures); higher = more thermally stable than in G1/S
HeLa Kyoto [2] = assay: solubility change mitosis vs G1/S (difference of NP-40 vs SDS log2 ratios) (log2 ratio difference); higher = more soluble in mitosis
HeLa Kyoto [3] = assay: melting temperature (median over replicates), in situ; higher = more thermally stable
HeLa Kyoto [4] = assay: solubility in G1/S (NP-40 vs SDS abundance) (log2 ratio); higher = more soluble; details: cell cycle stage: G1/S
[5] = cell cycle stage: early G1 (4.5 h after nocodazole release)
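For melting temperature (median over replicates), in situ in this document: HeLa Kyoto cells synchronized by double thymidine or nocodazole block, proteins quantified by TMT10plex mass spectrometry, three independent biological replicates.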
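For solubility change mitosis vs G1/S (difference of NP-40 vs SDS log2 ratios) in this document: synchronized HeLa Kyoto cells (double thymidine block for G1/S, nocodazole release for mitosis), protein amounts in NP-40 versus SDS lysates quantified by mass spectrometry, three biological replicates.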
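For solubility in G1/S (NP-40 vs SDS abundance) in this document: HeLa Kyoto cells arrested at G1/S by double thymidine block, proteins quantified by TMT10plex mass spectrometry in mild NP-40 versus SDS extracts, three biological replicates.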
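For thermal stability score vs G1/S (z-score of summed log2 fold changes over temperatures) in this document: synchronized HeLa Kyoto cells, proteins quantified by TMT10plex mass spectrometry, three biological replicates, mitosis taken 0.5 h after nocodazole release, G1/S directly after double thymidine block.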

| Sequence | thermal stability score (HeLa Kyoto [1]; [5]) | thermal stability score (HeLa Kyoto [1]; cell cycle stage: mitosis) | solubility change mitosis (log2) (HeLa Kyoto [2]) | melting temperature (HeLa Kyoto [3]; cell cycle stage: G1/S) [°C] | melting temperature (HeLa Kyoto [3]; cell cycle stage: mitosis) [°C] | solubility in G1/S (log2) (HeLa Kyoto [4]) |
| --- | --- | --- | --- | --- | --- | --- |
| MSRIEKMSILGVRSFGIEDKDKQIITFFSPLTILVGPNGAGKTTIIECLKYICTGDFPPGTKGNTFVHDPKVAQETDVRAQIRLQFRDVNGELIAVQRSMVCTQKSKKTEFKTLEGVITRTKHGEKVSLSSKCAEIDREMISSLGVSKAVLNNVIFCHQEDSNWPLSEGKALKQKFDEIFSATRYIKALETLRQVRQTQGQKVKEYQMELKYLKQYKEKACEIRDQITSKEAQLTSSKEIVKSYENELDPLKNRLKEIEHNLSKIMKLDNEIKALDSRKKQMEKDNSELEEKMEKVFQGTDEQLNDLYHNHQRTVREKERKLVDCHRELEKLNKESRLLNQEKSELLVEQGRLQLQADRHQEHIRARDSLIQSLATQLELDGFERGPFSERQIKNFHKLVRERQEGEAKTANQLMNDFAEKETLKQKQIDEIRDKKTGLGRIIELKSEILSKKQNELKNVKYELQQLEGSSDRILELDQELIKAERELSKAEKNSNVETLKMEVISLQNEKADLDRTLRKLDQEMEQLNHHTTTRTQMEMLTKDKADKDEQIRKIKSRHSDELTSLLGYFPNKKQLEDWLHSKSKEINQTRDRLAKLNKELASSEQNKNHINNELKRKEEQLSSYEDKLFDVCGSQDFESDLDRLKEEIEKSSKQRAMLAGATAVYSQFITQLTDENQSCCPVCQRVFQTEAELQEVISDLQSKLRLAPDKLKSTESELKKKEKRRDEMLGLVPMRQSIIDLKEKEIPELRNKLQNVNRDIQRLKNDIEEQETLLGTIMPEEESAKVCLTDVTIMERFQMELKDVERKIAQQAAKLQGIDLDRTVQQVNQEKQEKQHKLDTVSSKIELNRKLIQDQQEQIQHLKSTTNELKSEKLQISTNLQRRQQLEEQTVELSTEVQSLYREIKDAKEQVSPLETTLEKFQQEKEELINKKNTSNKIAQDKLNDIKEKVKNIHGYMKDIENYIQDGKDDYKKQKETELNKVIAQLSECEKHKEKINEDMRLMRQDIDTQKIQERWLQDNLTLRKRNEELKEVEEERKQHLKEMGQMQVLQMKSEHQKLEENIDNIKRNHNLALGRQKGYEEEIIHFKKELREPQFRDAEEKYREMMIVMRTTELVNKDLDIYYKTLDQAIMKFHSMKMEEINKIIRDLWRSTYRGQDIEYIEIRSDADENVSASDKRRNYNYRVVMLKGDTALDMRGRCSAGQKVLASLIIRLALAETFCLNCGIIALDEPTTNLDRENIESLAHALVEIIKSRSQQRNFQLLVITHDEDFVELLGRSEYVEKFYRIKKNIDQCSEIVKCSVSSLGFNVH [RAD50] | 2.17 | 3.45 | -0.108 | 48.8 | 49.7 | -0.129 |
| MSRIESLTRARIDRSRELASKTREKEKMKEAKDARYTNGHLFTTISVSGMTMCYACNKSITAKEALICPTCNVTIHNRCKDTLANCTKVKQKQQKAALLKNNTALQSVSLRSKTTIRERPSSAIYPSDSFRQSLLGSRRGRSSLSLAKSVSTTNIAGHFNDESPLGLRRILSQSTDSLNMRNRTLSVESLIDEAEVIYSELMSDFEMDEKDFAADSWSLAVDSSFLQQHKKEVMKQQDVIYELIQTELHHVRTLKIMTRLFRTGMLEELHLEPGVVQGLFPCVDELSDIHTRFLSQLLERRRQALCPGSTRNFVIHRLGDLLISQFSGPSAEQMCKTYSEFCSRHSKALKLYKELYARDKRFQQFIRKVTRPAVLKRHGVQECILLVTQRITKYPLLISRILQHSHGIEEERQDLTTALGLVKELLSNVDEGIYQLEKGARLQEIYNRMDPRAQTPVPGKGPFGREELLRRKLIHDGCLLWKTATGRFKDVLVLLMTDVLVFLQEKDQKYIFPTLDKPSVVSLQNLIVRDIANQEKGMFLISAAPPEMYEVHTASRDDRSTWIRVIQQSVRTCPSREDFPLIETEDEAYLRRIKMELQQKDRALVELLREKVGLFAEMTHFQAEEDGGSGMALPTLPRGLFRSESLESPRGERLLQDAIREVEGLKDLLVGPGVELLLTPREPALPLEPDSGGNTSPGVTANGEARTFNGSIELCRADSDSSQRDRNGNQLRSPQEEALQRLVNLYGLLHGLQAAVAQQDTLMEARFPEGPERREKLCRANSRDGEAGRAGAAPVAPEKQATELALLQRQHALLQEELRRCRRLGEERATEAGSLEARLRESEQARALLEREAEEARRQLAALGQTEPLPAEAPWARRPVDPRRRSLPAGDALYLSFNPPQPSRGTDRLDLPVTTRSVHRNFEDRERQELGSPEERLQDSSDPDTGSEEEGSSRLSPPHSPRDFTRMQDIPEETESRDGEAVASES [ARHGEF2] | 0.217 | 2.08 | -0.0226 | 48.4 | 48.4 | -0.137 |
| MSRKGPRAEVCADCSAPDPGWASISRGVLVCDECCSVHRSLGRHISIVKHLRHSAWPPTLLQMVHTLASNGANSIWEHSLLDPAQVQSGRRKANPQDKVHPIKSEFIRAKYQMLAFVHKLPCRDDDGVTAKDLSKQLHSSVRTGNLETCLRLLSLGAQANFFHPEKGTTPLHVAAKAGQTLQAELLVVYGADPGSPDVNGRTPIDYARQAGHHELAERLVECQYELTDRLAFYLCGRKPDHKNGHYIIPQMADSLDLSELAKAAKKKLQALSNRLFEELAMDVYDEVDRRENDAVWLATQNHSTLVTERSAVPFLPVNPEYSATRNQGRQKLARFNAREFATLIIDILSEAKRRQQGKSLSSPTDNLELSLRSQSDLDDQHDYDSVASDEDTDQEPLRSTGATRSNRARSMDSSDLSDGAVTLQEYLELKKALATSEAKVQQLMKVNSSLSDELRRLQREIHKLQAENLQLRQPPGPVPTPPLPSERAEHTPMAPGGSTHRRDRQAFSMYEPGSALKPFGGPPGDELTTRLQPFHSTELEDDAIYSVHVPAGLYRIRKGVSASAVPFTPSSPLLSCSQEGSRHTSKLSRHGSGADSDYENTQSGDPLLGLEGKRFLELGKEEDFHPELESLDGDLDPGLPSTEDVILKTEQVTKNIQELLRAAQEFKHDSFVPCSEKIHLAVTEMASLFPKRPALEPVRSSLRLLNASAYRLQSECRKTVPPEPGAPVDFQLLTQQVIQCAYDIAKAAKQLVTITTREKKQ [GIT1] | 0.709 | 0.998 | -0.123 | 48.4 | 50 | 0.235 |
| MSRPLITRSPASPLNNQGIPTPAQLTKSNAPVHIDVGGHMYTSSLATLTKYPESRIGRLFDGTEPIVLDSLKQHYFIDRDGQMFRYILNFLRTSKLLIPDDFKDYTLLYEEAKYFQLQPMLLEMERWKQDRETGRFSRPCECLVVRVAPDLGERITLSGDKSLIEEVFPEIGDVMCNSVNAGWNHDSTHVIRFPLNGYCHLNSVQVLERLQQRGFEIVGSCGGGVDSSQFSEYVLRRELRRTPRVPSVIRIKQEPLD [KCTD1] | 0.414 | 0.162 | -0.267 | 58.7 | 55.9 | 0.464 |
| MSRPRKRLAGTSGSDKGLSGKRTKTENSGEALAKVEDSNPQKTSATKNCLKNLSSHWLMKSEPESRLEKGVDVKFSIEDLKAQPKQTTCWDGVRNYQARNFLRAMKLGEEAFFYHSNCKEPGIAGLMKIVKEAYPDHTQFEKNNPHYDPSSKEDNPKWSMVDVQFVRMMKRFIPLAELKSYHQAHKATGGPLKNMVLFTRQRLSIQPLTQEEFDFVLSLEEKEPS [THYN1] | -1.19 | -1.36 | 0.199 | 47.3 | 51.3 | 0.389 |
| MSRPSSVSPRQPAPGGGGGGGPSPCGPGGGGRAKGLKDIRIDEEVKIAVNIALERFRYGDQREMEFPSSLTSTERAFIHRLSQSLGLVSKSKGKGANRYLTVKKKDGSETAHAMMTCNLTHNTKHAVRSLIQRFPVTNKERTELLPKTERGNVFAVEAENREMSKTSGRLNNGIPQIPVKRGESEFDSFRQSLPVFEKQEEIVKIIKENKVVLIVGETGSGKTTQIPQFLLDDCFKNGIPCRIFCTQPRRLAAIAVAERVAAERRERIGQTIGYQIRLESRVSPKTLLTFCTNGVLLRTLMAGDSTLSTVTHVIVDEVHERDRFSDFLLTKLRDLLQKHPTLKLILSSAALDVNLFIRYFGSCPVIYIQGRPFEVKEMFLEDILRTTGYTNKEMLKYKKEKQQEEKQQTTLTEWYSAQENSFKPESQRQRTVLNVTDEYDLLDDGGDAVFSQLTEKDVNCLEPWLIKEMDACLSDIWLHKDIDAFAQVFHLILTENVSVDYRHSETSATALMVAAGRGFASQVEQLISMGANVHSKASNGWMALDWAKHFGQTEIVDLLESYSATLEFGNLDESSLVQTNGSDLSAEDRELLKAYHHSFDDEKVDLDLIMHLLYNICHSCDAGAVLIFLPGYDEIVGLRDRILFDDKRFADSTHRYQVFMLHSNMQTSDQKKVLKNPPAGVRKIILSTNIAETSITVNDVVFVIDSGKVKEKSFDALNFVTMLKMVWISKASAIQRKGRAGRCRPGICFRLFSRLRFQNMLEFQTPELLRMPLQELCLHTKLLAPVNCPIADFLMKAPEPPPALIVRNAVQMLKTIDAMDTWEDLTELGYHLADLPVEPHLGKMVLCAVVLKCLDPILTIACTLAYRDPFVLPTQASQKRAAMLCRKRFTAGAFSDHMALLRAFQAWQKARSDGWERAFCEKNFLSQATMEIIIGMRTQLLGQLRASGFVRARGGGDIRDVNTNSENWAVVKAALVAGMYPNLVHVDRENLVLTGPKEKKVRFHPASVLSQPQYKKIPPANGQAAAIKALPTDWLIYDEMTRAHRIANIRCCSAVTPVTILVFCGPARLASNALQEPSSFRVDGIPNDSSDSEMEDKTTANLAALKLDEWLHFTLEPEAASLLLQLRQKWHSLFLRRMRAPSKPWSQVDEATIRAIIAVLSTEEQSAGLQQPSGIGQRPRPMSSEELPLASSWRSNNSRKSSADTEFSDECTTAERVLMKSPSPALHPPQKYKDRGILHPKRGTEDRSDQSSLKSTDSSSYPSPCASPSPPSSGKGSKSPSPRPNMPVRYFIMKSSNLRNLEISQQKGIWSTTPSNERKLNRAFWESSIVYLVFSVQGSGHFQGFSRMSSEIGREKSQDWGSAGLGGVFKVEWIRKESLPFQFAHHLLNPWNDNKKVQISRDGQELEPLVGEQLLQLWERLPLGEKNTTD [YTHDC2] | -0.356 | 0.243 | 0.163 | 50.2 | 50 | -0.57 |
| MSRRRHSDENDGGQPHKRRKTSDANETEDHLESLICKVGEKSACSLESNLEGLAGVLEADLPNYKSKILRLLCTVARLLPEKLTIYTTLVGLLNARNYNFGGEFVEAMIRQLKESLKANNYNEAVYLVRFLSDLVNCHVIAAPSMVAMFENFVSVTQEEDVPQVRRDWYVYAFLSSLPWVGKELYEKKDAEMDRIFANTESYLKRRQKTHVPMLQVWTADKPHPQEEYLDCLWAQIQKLKKDRWQERHILRPYLAFDSILCEALQHNLPPFTPPPHTEDSVYPMPRVIFRMFDYTDDPEGPVMPGSHSVERFVIEENLHCIIKSHWKERKTCAAQLVSYPGKNKIPLNYHIVEVIFAELFQLPAPPHIDVMYTTLLIELCKLQPGSLPQVLAQATEMLYMRLDTMNTTCVDRFINWFSHHLSNFQFRWSWEDWSDCLSQDPESPKPKFVREVLEKCMRLSYHQRILDIVPPTFSALCPANPTCIYKYGDESSNSLPGHSVALCLAVAFKSKATNDEIFSILKDVPNPNQDDDDDEGFSFNPLKIEVFVQTLLHLAAKSFSHSFSALAKFHEVFKTLAESDEGKLHVLRVMFEVWRNHPQMIAVLVDKMIRTQIVDCAAVANWIFSSELSRDFTRLFVWEILHSTIRKMNKHVLKIQKELEEAKEKLARQHKRRSDDDDRSSDRKDGVLEEQIERLQEKVESAQSEQKNLFLVIFQRFIMILTEHLVRCETDGTSVLTPWYKNCIERLQQIFLQHHQIIQQYMVTLENLLFTAELDPHILAVFQQFCALQA [NCBP1] | 0.234 | 0.31 | -0.144 | 50 | 50.4 | -0.297 |
| MSRYLRPPNTSLFVRNVADDTRSEDLRREFGRYGPIVDVYVPLDFYTRRPRGFAYVQFEDVRDAEDALHNLDRKWICGRQIEIQFAQGDRKTPNQMKAKEGRNVYSSSRYDDYDRYRRSRSRSYERRRSRSRSFDYNYRRSYSPRNSRPTGRPRRSRSHSDNDRFKHRNRSFSRSKSNSRSRSKSQPKKEMKAKSRSRSASHTKTRGTSKTDSKTHYKSGSRYEKESRKKEPPRSKSQSRSQSRSRSKSRSRSWTSPKSSGH [SRSF10] | 0.817 | -0.653 | 0.534 | 49.7 | 50.2 | -0.696 |
